Measurements reported in US6280972.

Biological target: methanol dehydrogenase (MDH) of Bacillus brevis S1 strain (NCIMB No. 12524) (Bacillus brevis S1 strain)

Activation ratio (%) of methanol dehydrogenase activity (Δ OD 340 nm/min, reduction of NAD+): 250%
Substance: methanol dehydrogenase activator YqkG of Bacillus subtilis (product of the yqkG / amd gene)
